# In publication doi:10.1101/2022.01.09.475567:
# Target: NP:WT-C-His (nucleoprotein) (Influenza A virus A/Puerto Rico/8/1934 …, UniProt P03466 1-498)
# Test: BLI
# NP:WT-C-His (nucleoprotein), sequence (P03466 whole entry): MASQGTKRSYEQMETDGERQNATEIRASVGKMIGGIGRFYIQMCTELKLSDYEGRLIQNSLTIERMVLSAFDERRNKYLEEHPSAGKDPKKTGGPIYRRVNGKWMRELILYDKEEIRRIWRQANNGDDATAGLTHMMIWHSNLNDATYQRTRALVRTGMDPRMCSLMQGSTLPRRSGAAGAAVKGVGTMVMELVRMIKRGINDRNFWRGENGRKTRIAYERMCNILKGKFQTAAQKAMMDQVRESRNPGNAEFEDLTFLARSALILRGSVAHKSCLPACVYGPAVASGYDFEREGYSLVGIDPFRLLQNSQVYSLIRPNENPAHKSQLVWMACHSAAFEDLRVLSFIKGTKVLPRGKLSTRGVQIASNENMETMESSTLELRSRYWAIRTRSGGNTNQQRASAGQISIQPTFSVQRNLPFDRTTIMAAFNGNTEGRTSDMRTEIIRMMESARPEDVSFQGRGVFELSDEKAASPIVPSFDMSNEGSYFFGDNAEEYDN
binder,measurement,value
UUUGUUACACACACACACGCUGUG (ssRNA) [24nt ssRNA],Kd,2.48 ± 0.091 nM
